From patent publication US20180251562A1 (XOMA US, published 2018)
Read-outs that look alike come from different tables or passages of the source.

Tests used:
[1] = target: T1, rat insulin receptor (INSR) on CHOK1 cells (rat, UniProt P15127 27-1383); assay: binding to CHO cells expressing rat INSR; 2nd column headed CHO Rat INSR (the 1st column's numbers with more digits); quantity and unit not printed [cont'd]
T1 construct: whole, on cells; CHOK1 cells over-expressing rat INSR; also called rat INSR ortholog

[2] = target: T1, rat insulin receptor (INSR) on CHOK1 …; assay: binding to CHO cells expressing rat INSR; 1st column headed CHO Rat INSR; quantity and unit not printed [cont'd]
[3] = target: T2, solubilized human INSR (B isoform) from CHO-hINSR-B cells, without insulin (human, UniProt P06213 28-1382); assay: SPR (ProteOn XPR36), solubilized INSR-B captured by CT-3 mAb, Fab injected, -insulin
T2 construct: mature; Detergent-solubilized full-length receptor in cell lysate, captured on the SPR chip by its carboxy-terminal part; also called solubilized INSR

[4] = target: T3, human insulin receptor (INSR) on CHOK1 cells (human, UniProt P06213 28-1382); assay: cell-based or functional assay
[5] = target: T4, cynomolgus insulin receptor (INSR) on CHOK1 cells (cyno, UniProt A0A7N9D6H3 48-1390); assay: binding to CHO cells expressing cyno INSR; 1st column headed CHO Cyno INSR; quantity and unit not printed [cont'd]
T4 construct: whole, on cells; CHOK1 cells over-expressing cyno INSR; also called cynomologous INSR ortholog; monkey INSR

[6] = target: T3, human insulin receptor (INSR) on CHOK1 …; assay: binding to CHO cells expressing human INSR; 2nd column headed CHO Human INSR; quantity and unit not printed [cont'd]
[7] = target: T3, human insulin receptor (INSR) on CHOK1 …; assay: binding to CHO cells expressing human INSR; 1st column headed CHO Human INSR; quantity and unit not printed [cont'd]
[8] = target: T5, Recombinant human insulin receptor (B form) ECD (R&D Systems) (human, UniProt P06213 28-956, limits assumed); assay: SPR (Biacore 2000), INSR-ECD immobilised, purified Fab injected, 1:1 fit
T5 construct: extracellular domain; also called INSR-ECD; h-INSR

[9] = target: T3, human insulin receptor (INSR) on CHOK1 …; assay: cell-based or functional assay; remark: listed apart in the source
[10] = target: T6, minipig insulin receptor (INSR) on CHOK1 cells (minipig, UniProt F1SCL0 28-758; F1SCL0 763-1382); assay: cell-based or functional assay
[11] = target: T1, rat insulin receptor (INSR) on CHOK1 …; assay: cell-based or functional assay
[12] = target: T4, cynomolgus insulin receptor (INSR) on …; assay: cell-based or functional assay
[13] = target: T3, human insulin receptor (INSR) on CHOK1 …; assay: cell-based or functional assay; remark: listed apart in the source
[14] = target: T3, human insulin receptor (INSR) on CHOK1 …; assay: flow cytometry on CHO cells expressing human INSR
[15] = target: T4, cynomolgus insulin receptor (INSR) on …; assay: binding to CHO cells expressing cyno INSR; 2nd column headed CHO Cyno INSR (same numbers as the 1st); quantity and unit not printed [cont'd]
[16] = target: T6, minipig insulin receptor (INSR) on …; assay: flow cytometry on CHOK1 cells expressing the INSR ortholog; Fab, anti-human kappa FITC detection
[17] = target: T1, rat insulin receptor (INSR) on CHOK1 …; assay: as above
[18] = target: T4, cynomolgus insulin receptor (INSR) on …; assay: as above
[19] = target: T3, human insulin receptor (INSR) on CHOK1 …; assay: as above
[20] = target: T6, minipig insulin receptor (INSR) on …; assay: flow cytometry on CHOK1 cells expressing the INSR ortholog; IgG, anti-human IgG APC detection
[21] = target: T1, rat insulin receptor (INSR) on CHOK1 …; assay: as above
[22] = target: T4, cynomolgus insulin receptor (INSR) on …; assay: as above
[23] = target: T3, human insulin receptor (INSR) on CHOK1 …; assay: as above
[24] = target: T3, human insulin receptor (INSR) on CHOK1 …; assay: flow cytometry on CHO cells expressing human INSR; remark: listed apart in the source
[25] = target: T2, solubilized human INSR (B isoform) from …; assay: SPR (ProteOn XPR36), solubilized INSR captured by CT-3 mAb, antibody injected, no insulin
[26] = target: T5, Recombinant human insulin receptor (B …); assay: SPR (Biacore 2000), INSR-ECD immobilised, purified Fab injected, 1:1 fit [cont'd]
[27] = target: T5, Recombinant human insulin receptor (B …); assay: SPR (Biacore 2000), INSR-ECD immobilised; relative to 247.2.018 Fab

Binder	CHO Rat INSR [1]	CHO Rat INSR [2]	Potency EC50 value [nM] [cont'd] [4] [nM]	CHO Cyno INSR [5]	CHO Human INSR [6]	CHO Human INSR [7]	Kd [8] [nM]	EC50, pAKT assay at the EC80 concentration of insulin [9] [nM]	EC50 (nM), pAKT signaling assay [10] [nM]	EC50 (nM), pAKT signaling assay [11] [nM]	EC50 (nM), pAKT signaling assay [12] [nM]	EC50 (nM), pAKT signaling assay [13] [nM]	CHO Cyno INSR [15]	EC50 [20] [nM]	EC50 [21] [nM]	EC50 [22] [nM]	EC50 [23] [nM]	Kd [25] [nM]	other results
XPA.15.247.2.018 Fab (Fab, V domains shown, Monomeric Fab; also called XPA.247.2.018) VH: EVQLVETGGGVVQPGRSLRLSCAASGFTFSSYAMHWVRQAPGKGLEWVAVISYSGSNKYYADSVKGRFTISRDNSKNTLYLQMNSLRAEDTAVYYCARHEWGFGFDYWGQGTTVTVSS VL: DVVMTQSPLSLPVTLGQPASISCRSSQSLVYGDGNTYLNWFQQRPGQSPRRLIYKVSNRDSGVPDRFSGSGSGTEFTLKISRVEAEDVGVYFCMQGTYWPGTFGGGTKLEIKR	1.28	1.28	1.31	2.62	1.63	2.2	9.7	7.7	2.5	4.2	2.8	3.3	2.62						Kd [3]: 6.9 nM; EC50 (read off the curve) [14]: ~0.2 µg/mL; EC50 [16]: 2 nM; EC50 [17]: 1.9 nM; EC50 [18]: 21.9 nM; EC50 [19]: 1.6 nM
XPA.15.247 parent antibody (IgG) (antibody, V domains shown, Tested as IgG; also called XPA.15.247 antibody) VH: EVQLVETGGGVVQPGRSLRLSCAASGFTFSSYAMHWVRQAPGKGLEWVAVISYDGSNKYYADSVKGRFTISRDNSKNTLYLQMNSLRAEDTAVYYCARHEWGFGMDVWGQGTTVTVSS VL: DVVMTQSPLSLSVTLGQPASISCRSSLSLVYGDENTYLNWFQQRPGQSPRRLLYKVSDRDSGVPDRFSGSGSGTDFTLKISRVEADDVGVYYCMQGTHWPYTFGQGTKLEIKR								34.7	20.7	46.2	30.7	34.5		12	9.7	13.6	8.8	10	koff [25]: 0.000471 s⁻¹; kon [25]: 38500 M⁻¹ s⁻¹

The next lines start with results.

CHO Rat INSR [1]	CHO Rat INSR [2]	Potency EC50 value [nM] [cont'd] [4] [nM]	CHO Cyno INSR [5]	CHO Human INSR [6]	CHO Human INSR [7]	Kd [8] [nM]	EC50, pAKT assay at the EC80 concentration of insulin [9] [nM]	EC50 (nM), pAKT signaling assay [10] [nM]	EC50 (nM), pAKT signaling assay [11] [nM]	EC50 (nM), pAKT signaling assay [12] [nM]	EC50 (nM), pAKT signaling assay [13] [nM]	CHO Cyno INSR [15]	EC50 [20] [nM]	EC50 [21] [nM]	EC50 [22] [nM]	EC50 [23] [nM]	Kd [25] [nM]	Binder	other results
								0.3	0.4	0.2	0.3		0.5	0.4	1.4	0.3	6.6	XPA.15.247.2.018 IgG (antibody, V domains shown, Tested as IgG; also called XPA.15.247.2.018 antibody) VH: EVQLVETGGGVVQPGRSLRLSCAASGFTFSSYAMHWVRQAPGKGLEWVAVISYSGSNKYYADSVKGRFTISRDNSKNTLYLQMNSLRAEDTAVYYCARHEWGFGFDYWGQGTTVTVSS VL: DVVMTQSPLSLPVTLGQPASISCRSSQSLVYGDGNTYLNWFQQRPGQSPRRLIYKVSNRDSGVPDRFSGSGSGTEFTLKISRVEAEDVGVYFCMQGTYWPGTFGGGTKLEIKR	EC50 (read off the curve) [24]: ~0.8 µg/mL
0.621	0.621	1.16	0.728	0.791	1.06	1.4						0.728						RHF.15.05896.075 (Fab, V domains shown, Untagged Fab) VH: EVQLVETGGGVVQPGRSLRLSCAASGFKFSSYAMHWVRQAPGKGLEWVAVISYSGSNKYYADSVKGRFTISRDNSKNTLYLQMNSLRAEDTAVYYCARHEWGFGYDYWGQGTTVTVSS VL: DVVMTQSPLSLPVTLGQPASISCRSSQSLVYGDGNTYLNWFQQRPGQSPRRLIYKVSNRDSGVPDRFSGSGSGTEFTLKISRVEAEDVGVYFCMQGTYWPGTFGGGTKLEIKR	koff [26]: 0.00045 s⁻¹; kon [26]: 320000 M⁻¹ s⁻¹; Fold KD Improvement [27]: 7 fold
